# Experimental data as given in PMC5928155, “Sak4 of Phage HK620 Is a RecA Remote Homolog With Single-Strand Annealing Activity Stimulated by Its Cognate SSB Protein” (Frontiers in Microbiology, 2018).
# B1: GO47 (ssDNA)
# DNA: ACCTGAATCGCCAGCGGCATCAGCACCTTGTCGCCTTACGTATACTATTTGCCCATGGTGAAAACGGGGGCGAAGAAGTTG
# B2: GO47/GO34 duplex (dsDNA)
# DNA 1: B1 DNA
# DNA 2: CAACTTCTTCGCCCCCGTTTTCACCATGGGCAAATAGTATACGTAAGGCGACAAGGTGCTGATGCCGCTGGCGATTCAGGT
# B3: SSB_(HK620), wild-type HkaK protein from phage HK620 (natural protein, UniProt Q9AZ30 1-195, looked up)
# chain: MSNVIFTYNEEAALTAGQGGFINETGAHIITITEAELKQSEKGAKFIEFSGESDDGRKIQYLSVCVQKNDGTENKFGANVVHAMMGCAGIGQLTQHMVSASKFVAPEFHGKKIGLVLQKVLTTNKKTGADSYQMEIRIPFIAQTGQTLKEKAVGKQPETIANMVASLKDKDNRSKNVSQNHADDYGYSQNDYPPF
# notes: HkaK (first annotated Abc1) of phage HK620, a distant SSB homolog (Pfam DUF669); produced untagged; monomer 21.3 kDa; Untagged; also called Abc1_(HK620); HkaK/Abc1_(HK620); source: E. coli ER2566 with pSMG279, purified (PEI, ammonium sulfate, HiTrap Heparin)
# Experiments:
# [1] = target: T1, Sak4 (HkaL) of phage HK620 (Enterobacteria phage HK620, UniProt Q9AZ29); experiment: gel shift of Cy5-labelled 81-mer ssDNA and single-strand annealing assay, with or without ATP; conditions: 1 mM ATP, 5 mM MgCl2, about 150-169 mM NaCl, pH 7.5, 30 °C; ATP needed for ssDNA binding and annealing; functional evidence, nucleotide binding not measured directly
# T1 construct: untagged full-length Sak4 from plasmid pSMG288, expressed in E. coli ER2566; monomer in solution
# T1 sequence (Q9AZ29 1-226): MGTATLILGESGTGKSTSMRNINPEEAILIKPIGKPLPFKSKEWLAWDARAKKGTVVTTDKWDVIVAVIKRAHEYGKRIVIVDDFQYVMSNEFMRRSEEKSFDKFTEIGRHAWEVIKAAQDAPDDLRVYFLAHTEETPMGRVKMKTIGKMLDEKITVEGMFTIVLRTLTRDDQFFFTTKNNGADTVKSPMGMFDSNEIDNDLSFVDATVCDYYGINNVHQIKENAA
# [2] = target: SSB_(HK620), wild-type HkaK protein from phage HK620 (phage HK620) (UniProt Q9AZ30)
# Sak4 (HkaL) [3] = target: T2, Sak4 (HkaL) (Enterobacteria phage HK620, UniProt Q9AZ29 1-226); experiment: EMSA; 1 mM ATP, 5 mM Mg2+; EMSA: 13 mM Tris-HCl pH 7.5, 5 mM MgCl2, 169 mM NaCl, 0.1 mg/mL BSA, 1 mM DTT, +/- 1 mM ATP, 10 nM DNA, 15 min at 30 C; 5% native PAGE in 1X TAE; conditions: protein: recombinant; tags: none stated; label: 5'-Cy5; single strand
# T2 sequence: T1 sequence (Q9AZ29 1-226)
# SSB HK620 (HkaK) = target: T3, SSB HK620 (HkaK) (Enterobacteria phage HK620, UniProt Q9AZ30 1-195); experiment: EMSA; 5 mM Mg2+, 1 mM ATP; EMSA: 13 mM Tris-HCl pH 7.5, 5 mM MgCl2, 169 mM NaCl, 0.1 mg/mL BSA, 1 mM DTT, +/- 1 mM ATP, 10 nM DNA, 15 min at 30 C; 5% native PAGE in 1X TAE; conditions: protein: recombinant; tags: untagged; chain copies: 4; label: 5'-Cy5; single strand
# T3 sequence: B3 chain
# SSB Ecoli = SSB Ecoli (Escherichia coli, UniProt P0AGE0 2-178); experiment: as above; conditions: protein: commercial; chain copies: 4; label: 5'-Cy5; single strand
# SSB Ecoli, sequence (P0AGE0 2-178): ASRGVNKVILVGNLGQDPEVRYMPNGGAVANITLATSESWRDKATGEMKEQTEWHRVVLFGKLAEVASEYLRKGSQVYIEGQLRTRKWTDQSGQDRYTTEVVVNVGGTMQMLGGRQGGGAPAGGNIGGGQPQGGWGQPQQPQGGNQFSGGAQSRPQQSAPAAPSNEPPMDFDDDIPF
# [4] = target: T4, Sak4 (HkaL);SSB HK620 (HkaK) (Enterobacteria phage …, UniProt Q9AZ29;Q9AZ30 1-226;1-195, |); experiment: EMSA; Sak4 titrated on GO47 precoated with 5.1 uM SSB HK620; 1 mM ATP; value is Sak4 concentration; EMSA: 13 mM Tris-HCl pH 7.5, 5 mM MgCl2, 169 mM NaCl, 0.1 mg/mL BSA, 1 mM DTT, +/- 1 mM ATP, 10 nM DNA, 15 min at 30 C; 5% native PAGE in 1X TAE; conditions: protein: recombinant;recombinant; tags: none stated;untagged; copies: 1;4; label: 5'-Cy5; single strand
# T4 sequence 1: T1 sequence (Q9AZ29 1-226)
# T4 sequence 2: B3 chain
# Sak4 (HkaL) [5] = target: T2, Sak4 (HkaL); experiment: EMSA; 3.7 uM Sak4, 1 mM ATP; EMSA: 13 mM Tris-HCl pH 7.5, 5 mM MgCl2, 169 mM NaCl, 0.1 mg/mL BSA, 1 mM DTT, +/- 1 mM ATP, 10 nM DNA, 15 min at 30 C; 5% native PAGE in 1X TAE; conditions: protein: recombinant; tags: none stated; label: 5'-Cy5 on GO47; blunt
# [6] = target: the molecule itself; experiment: SEC; Superdex 200 10/300 GL; proteins alone or together in 1 mL of 50 mM Tris-HCl pH 8, 1 mM DTT, 5% glycerol, 150 mM NaCl, 20 min at 30°C before injection; fractions analysed by SDS-PAGE; no ssDNA, no ATP
molecule,measurement,setting,value
Nc1ncnc2c1ncn2[C@@H]1O[C@H](COP(=O)(O)OP(=O)(O)OP(=O)(O)O)[C@@H](O)[C@H]1O [ATP],"gel shift of Cy5-labelled 81-mer ssDNA and single-strand annealing assay, with o",[1],Sak4 shifted the ssDNA only if ATP was added in the reaction buffer
Sak4 protein of phage HK620 (natural protein),"single-strand annealing of GO47 and GO34 (10 nM each) by 0.5 µM Sak4 with SSB (HK620) at concentrations above 640 nM, 1 mM ATP (spontaneous annealing 11.8%)",[2],> 65%
B1,apparent K (half saturation),Sak4 (HkaL) [3],~1850 nM
same,apparent K (half saturation),SSB HK620 (HkaK),226 nM
same,apparent K (half saturation),SSB Ecoli,~40 nM
same,apparent K (half saturation),[4],< 500 nM
B2,binding result,Sak4 (HkaL) [5],no binding
B3,stoichiometry N,[6],4
